Drawing on paper PMC5758712, this text covers Kd, dH and stoichiometry N for nine substances.

Where only a bound is given, the exact number is not on record here.

Assay [1] addresses UbcH5B (Homo sapiens) (UniProt P62837). Particulars: cited from earlier work.
Assay [2] has as its target UbcH5A-Ub (UniProt P51668). Put plainly: ITC; E2 or E2~Ub in the cell at 25–30 μM, RBR in the syringe at 250–300 μM; 293 K; 25 mM Hepes pH 7.5, 150 mM NaCl, 0.5 mM TCEP; 1:1 binding model.
Assay [3] has as its target UbcH7 (UniProt P68036). The description is as above.
Assay [4] has as its target UbcH7-Ub (UniProt P68036). The assay is described as above.

Chain of RNF144A-RBR (P50876 1-250): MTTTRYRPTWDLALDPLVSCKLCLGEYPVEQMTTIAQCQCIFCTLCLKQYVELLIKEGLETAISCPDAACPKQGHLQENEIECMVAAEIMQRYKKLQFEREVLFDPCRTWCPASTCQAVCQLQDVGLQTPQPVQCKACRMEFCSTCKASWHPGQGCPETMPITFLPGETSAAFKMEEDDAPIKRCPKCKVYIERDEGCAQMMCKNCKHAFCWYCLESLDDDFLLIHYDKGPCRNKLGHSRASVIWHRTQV
Chain of HOIP-RBR (Q96EP0 whole entry, the tested form may be a part): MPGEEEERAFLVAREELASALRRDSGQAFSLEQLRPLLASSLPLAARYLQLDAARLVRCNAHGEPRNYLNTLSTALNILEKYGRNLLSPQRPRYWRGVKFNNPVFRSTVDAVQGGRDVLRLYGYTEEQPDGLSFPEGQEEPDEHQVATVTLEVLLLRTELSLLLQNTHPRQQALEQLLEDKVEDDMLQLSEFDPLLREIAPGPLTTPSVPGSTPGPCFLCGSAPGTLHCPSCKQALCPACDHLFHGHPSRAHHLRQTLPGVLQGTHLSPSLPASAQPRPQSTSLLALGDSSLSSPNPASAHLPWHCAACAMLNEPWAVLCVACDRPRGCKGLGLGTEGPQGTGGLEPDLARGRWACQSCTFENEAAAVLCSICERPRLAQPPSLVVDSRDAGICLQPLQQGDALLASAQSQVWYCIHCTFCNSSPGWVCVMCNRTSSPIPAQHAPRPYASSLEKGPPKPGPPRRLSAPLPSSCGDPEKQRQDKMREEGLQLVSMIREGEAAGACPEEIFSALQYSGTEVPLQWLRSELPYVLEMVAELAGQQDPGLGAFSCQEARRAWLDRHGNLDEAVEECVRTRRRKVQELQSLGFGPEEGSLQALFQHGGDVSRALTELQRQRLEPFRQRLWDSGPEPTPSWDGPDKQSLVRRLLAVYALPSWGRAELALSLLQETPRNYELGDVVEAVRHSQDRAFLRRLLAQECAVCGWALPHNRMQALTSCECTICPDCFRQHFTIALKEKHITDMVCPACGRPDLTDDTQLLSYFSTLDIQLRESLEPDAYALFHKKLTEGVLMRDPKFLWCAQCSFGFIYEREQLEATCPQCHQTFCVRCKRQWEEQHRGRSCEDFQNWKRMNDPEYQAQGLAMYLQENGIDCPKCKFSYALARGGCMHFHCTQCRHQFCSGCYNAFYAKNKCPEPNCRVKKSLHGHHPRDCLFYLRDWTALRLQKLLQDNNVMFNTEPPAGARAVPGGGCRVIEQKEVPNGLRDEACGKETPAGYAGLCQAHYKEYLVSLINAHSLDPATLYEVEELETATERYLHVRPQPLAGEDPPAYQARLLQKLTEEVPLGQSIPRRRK
Chain of HOIP-Ring1 (Q96EP0 whole entry, the tested form may be a part): as above
Chain of HHARI-Ring1 (Q9Y4X5 whole entry, the tested form may be a part): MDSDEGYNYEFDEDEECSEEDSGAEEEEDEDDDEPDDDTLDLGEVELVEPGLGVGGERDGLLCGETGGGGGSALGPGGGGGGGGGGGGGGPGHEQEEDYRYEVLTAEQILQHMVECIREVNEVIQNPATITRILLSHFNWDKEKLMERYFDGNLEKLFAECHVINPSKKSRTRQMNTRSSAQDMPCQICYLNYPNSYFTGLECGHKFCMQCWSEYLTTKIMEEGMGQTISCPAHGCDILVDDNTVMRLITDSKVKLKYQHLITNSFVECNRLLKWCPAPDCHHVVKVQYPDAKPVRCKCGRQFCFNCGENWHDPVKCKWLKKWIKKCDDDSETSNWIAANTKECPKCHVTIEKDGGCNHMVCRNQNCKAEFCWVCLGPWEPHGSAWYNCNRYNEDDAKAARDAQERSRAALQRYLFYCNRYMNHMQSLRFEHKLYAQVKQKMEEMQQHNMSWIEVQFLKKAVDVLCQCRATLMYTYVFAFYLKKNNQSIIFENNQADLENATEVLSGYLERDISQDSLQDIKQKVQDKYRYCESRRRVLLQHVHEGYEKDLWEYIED
Chain of HHARI-RBR (Q9Y4X5 whole entry, the tested form may be a part): as above
Chain of RNF144A-Ring1 (P50876 whole entry, the tested form may be a part): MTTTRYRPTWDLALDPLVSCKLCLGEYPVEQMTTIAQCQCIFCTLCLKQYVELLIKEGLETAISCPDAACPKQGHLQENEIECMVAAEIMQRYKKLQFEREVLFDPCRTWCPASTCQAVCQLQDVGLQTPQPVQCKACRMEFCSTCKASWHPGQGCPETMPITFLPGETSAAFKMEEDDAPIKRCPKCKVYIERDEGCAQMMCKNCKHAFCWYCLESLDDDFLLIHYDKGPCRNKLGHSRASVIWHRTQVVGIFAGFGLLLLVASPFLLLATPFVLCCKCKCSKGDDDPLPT
Chain of HHARI (Q9Y4X5 whole entry): as the sequence (Q9Y4X5 whole entry, the tested form may be a part) above
Chain of UbcH5B (Homo sapiens) (P62837 whole entry): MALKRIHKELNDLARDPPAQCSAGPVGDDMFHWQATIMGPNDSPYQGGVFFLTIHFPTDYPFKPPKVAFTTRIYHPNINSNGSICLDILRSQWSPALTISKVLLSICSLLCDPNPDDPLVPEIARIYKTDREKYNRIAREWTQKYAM

HHARI (from UniProt Q9Y4X5): the Kd in assay [1] is 20 µM.
As to “HHARI-RBR (from UniProt Q9Y4X5 1-557) (domain or fragment)”, the dissociation constant Kd in assay [2] turned out to be 4.5 µM; in assay [3], 0.41 µM; in assay [4] it was 0.2 µM. The dH in assay [2] is -3.7 kcal/mol; in assay [3], 1.8 kcal/mol; in assay [4] it was -2.3 kcal/mol. Also, the stoichiometry N in assay [2] was found to be 0.8; in assay [3] it was 0.9; in assay [4] it was 0.9.
Take “HHARI-Ring1 (from UniProt Q9Y4X5 1-557) (domain or fragment)”: the dissociation constant Kd in assay [2] was over 50 µM. Further, in assay [3], the dissociation constant (Kd) worked out at 0.21 µM, the dH came to 4.2 kcal/mol and the stoichiometry N was found to be 0.8. Also, in assay [4], the Kd amounted to 0.12 µM, the dH amounted to 3.9 kcal/mol and the stoichiometry N amounted to 0.8.
In assay [2], “HOIP-RBR (from UniProt Q96EP0 1-1072) (domain or fragment)” gave a dissociation constant (Kd) of 4.3 µM, a dH of -8.2 kcal/mol and a stoichiometry N of 0.9. Moreover, in assay [3], the Kd is 2.3 µM, the dH was determined as 0.8 kcal/mol and the stoichiometry N is 0.8. In assay [4], this substance yielded a dissociation constant Kd of 0.9 µM, a dH of 0.8 kcal/mol and a stoichiometry N of 0.9.
In assay [2], “HOIP-Ring1 (from UniProt Q96EP0 1-1072) (domain or fragment)” had a Kd of over 50 µM. In assay [3], this substance registered a dH of 1.4 kcal/mol and a stoichiometry N of 1. Moreover, in assay [4], the Kd turned out to be 4.3 µM, the dH came out at 1.1 kcal/mol and the stoichiometry N was 0.9.
For the substance “RNF144A-RBR (from UniProt P50876 1-250) (domain or fragment)”, in assay [3], the dissociation constant (Kd) was determined as 1 µM, the dH turned out to be 1.7 kcal/mol and the stoichiometry N was determined as 0.9. In assay [4], the Kd worked out at 0.52 µM, the dH was -0.9 kcal/mol and the stoichiometry N was found to be 0.8.
“RNF144A-Ring1 (from UniProt P50876 1-292) (domain or fragment)” came in with a dissociation constant Kd in assay [2] of over 50 µM. In assay [3], this substance showed a Kd of 2.2 µM, a dH of 3.5 kcal/mol and a stoichiometry N of 0.8. Besides, in assay [4], the Kd was 1 µM, the dH was determined as 2.7 kcal/mol and the stoichiometry N was 0.8.
Turning to “TRIAD3A-RBR (from UniProt Q9NWF9-2 510-801) (domain or fragment)”, in assay [4], the Kd was found to be 2.4 µM, the dH amounted to 3.7 kcal/mol and the stoichiometry N was 0.9.
Consider “TRIAD3A-Ring1 (from UniProt Q9NWF9-2 1-866) (domain or fragment)”, for which the Kd in assay [2] is over 50 µM; in assay [3], 3.2 µM; in assay [4], 4.3 µM. For the same substance, the dH in assay [3] was found to be 4.5 kcal/mol; in assay [4] it was 3.6 kcal/mol. The stoichiometry N in assay [3] and in assay [4] was 0.8 each time.
